# Earlier results, collected in article doi:10.1101/2022.08.17.503475.
# Molecular target: Glu14 (UniProt position 14, GAILAEVIGTT)
# Assay: NMR
# Conditions: TPP+-bound; alternating access in slow exchange throughout the tested pH range
substance,measurement,value
"EmrE (multidrug transporter EmrE, small multidrug resistance family) (Escherichia coli)",pKa,6.8 ± 0.1
